According to paper PMC9569824:

Target: bovine pancreatic ribonuclease A (bovine) (UniProt P61823)
Experiment: SEC; size of the SA-2 peak from stored N-swapped oligomers, estimated from its elution volume against the calibration curves of the Superdex columns; estimate only

## bovine pancreatic ribonuclease A (from UniProt P61823 27-150) (enzyme)
  stoichiometry N (RNase A units): 180
